B1: Ab2001.16 (bispecific antibody, V domains shown)
VH 1: EVQLVESGGGLVQPGGSLRLSCAASGFSFSNSDMHWVRQATGKGLEWVSAIGDSGDTYYSDSVKGRFTISRENAKSSLYLQMNSLRAEDTAVYYCARAANWGWDWYFDLWGRGTLVTVSS
VH 2: EVQLVETGGGLIQPGGSLRLSCAASGFTVSSNYMSWVRQAPGKGLEWVSVIYSGGSTYYADSVKGRFTISRDNSKNTLYLQMNSLRAEDTAVYYCARDAGPYGMDVWGQGTTVTVSS
VL: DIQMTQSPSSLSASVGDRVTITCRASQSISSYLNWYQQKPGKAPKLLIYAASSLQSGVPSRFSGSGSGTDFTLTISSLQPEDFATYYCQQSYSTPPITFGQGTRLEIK
B2: Ab2001.11 (antibody, V domains shown)
VH: B1 VH 1
VL: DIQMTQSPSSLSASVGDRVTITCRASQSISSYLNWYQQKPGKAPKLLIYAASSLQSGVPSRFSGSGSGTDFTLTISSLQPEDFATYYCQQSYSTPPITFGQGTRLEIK
B3: Ab2001.10 (antibody, V domains shown)
VH: QVQLVQSGAEVKKPGASVKVSCKASGDTFSSFDINWVRQATGQGLEWMGWMHAGSGNAGYAQKFQGRVTMTRDTSISTAYMELSSLRSEDTAVYYCANYVPHGAFQIWGQGTMVTVSS
VL: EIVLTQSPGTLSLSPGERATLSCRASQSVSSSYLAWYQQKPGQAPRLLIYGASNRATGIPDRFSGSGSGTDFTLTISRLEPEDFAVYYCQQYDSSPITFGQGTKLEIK
B4: Ab2001.08 (antibody, V domains shown)
VH: QVQLVQSGAEVKKPGSSVKVSCKASGGTFSSYAISWVRQAPGQGLEWMGRIIPIFGTANYAQKFQGRVTITADESTSTAYMELSSLRSEDTAVYYCASLASYSSGWEDVFDIWGQGTMVTVSS
VL: DIQMTQSPSSLSASVGDRVTITCRASQGISSWLAWYQQKPGKAPKLLIYDASNLETGVPSRFSGSGSGTDFTFTISSLQPEDIATYYCQQYDNLPLTFGGGTKVEIK

Columns and labels:
SARS-CoV-2 S1 = SARS-CoV-2 S1 (SARS-CoV-2, UniProt P0DTC2 16-685)
SARS-CoV S1 = SARS-CoV S1 (SARS-CoV, UniProt P59594 14-667); assay: competition ELISA as in Example 3.2: blocking of SARS-CoV S1 binding to hACE2

Binder | Kd (SARS-CoV-2 S1) [nM] | IC50 (SARS-CoV S1) [nM]
B1 | 2.39 | 
B2 |  | 304
B3 | 4.21 | 
B4 | 2.93 | 
